For orientation: stoichiometry N means a count of units in the complex or per binding partner.

The source of these data is publication PMC4493018, “A Unique Human Norovirus Lineage with a Distinct HBGA Binding Interface” (PLoS Pathogens, 2015).

In assay [1] the target is T1, OIF P particle (Norovirus NLV/IF1998/2003/Iraq, UniProt Q6B7R3).
T1 construct: P domain self-assembled to P particles of 830 kDa; GST fusion from E. coli BL21, GST cut off with thrombin
The assay is described as follows: ELISA, oligosaccharide coated on plate. The format is binding. The conditions noted are these: P particles 10 μg/ml, coated synthetic oligosaccharide 2 μg/ml (polyvalent PAA conjugate in the blocking assay), 37 °C. Background: In an ELISA, binding on a coated surface is turned into a signal by an enzyme label.

The target of assay [2] is T2, OIF P domain (GII.21 OIF virus P dimer) (Norovirus NLV/IF1998/2003/Iraq, UniProt Q6B7R3).
T2 construct: P domain, residues 220-527, pGEX-6P-1 GST fusion in E. coli BL21(DE3), GST cut off with PreScission protease; dimer
Nature of the assay: X-ray co-crystal structure, […] Å. The conditions noted are these: co-crystallised without glycerol; 10 mM ligand; new HBGA site of B-, N- and T-loops; beta-Gal is major binding saccharide.

In assay [3] the target is P domain of the GII.21 OIF (Operation Iraqi Freedom) norovirus capsid protein VP1 (human norovirus GII.21 OIF virus). Nature of the assay: crystal structure.
Assay [4] has as its target A antigen oligosaccharide. Nature of the assay: plate binding assay with coated oligosaccharides (OD450 read-out). The conditions noted are these: P particles 10 μg/ml; oligosaccharides for plate coating at 2 μg/ml; parent: est. 0.04; read off a plot.
Assay [5] has as its target Lea oligosaccharide. Described as above. The conditions noted are these: P particles 10 μg/ml; oligosaccharides for plate coating at 2 μg/ml; parent: est. 0.85; read off a plot.

As to `CC(=O)N[C@H]1C(O)O[C@H](CO)[C@@H](O[C@@H]2O[C@@H](C)[C@@H](O)[C@@H](O)[C@@H]2O)[C@@H]1O[C@@H]1O[C@H](CO)[C@H](O)[C@H](O)[C@H]1O` (stereo partly drawn) [Le^a trisaccharide, β-Gal-(1,3)-(α-Fuc-(1,4))- GlcNAc], in assay [1], the “ELISA, oligosaccharide coated on plate” value is “wild type P particle of OIF virus that binds strongly to Le^a oligosaccharide”. In addition, in assay [2], the “X-ray co-crystal structure, 2.00 Å” value is reported as “we co-crystallized the OIF P domain with Le^a trisaccharide”.

The molecule “P domain of the GII.21 OIF (Operation Iraqi Freedom) norovirus capsid protein VP1 (domain or fragment)” had a stoichiometry N in assay [3] of 2.

As for wild type P particle of OIF virus D294A, the response in assay [4] turned out to be 0.07 OD450; in assay [5] it was 0.32 OD450.

In the case of wild type P particle of OIF virus E358A, the response in assay [4] turned out to be 0.08 OD450.
